Experimental data: the supplement of paper PMC10126150
± gives the standard deviation of the averaged measurements.

Tested on: ATP
Experiment: switch fluorescence ratio, 500 uM ATP over buffer (Cy3 cluster intensity, sum of 5 cycles each) (fold (ratio)); higher = stronger signal-on switching upon ATP binding; sequences stand for … in TCGTCGGCAGCGTCAGATGTGTATAAGAGACAGTTTTTTTTTTTTTTTTTTTTTTTTT…TC
Details: aptamer strand: ATP DNA aptamer (quencher-CACCTGGGGGAGTATTGCGGAGGAAGG + anchor), 100 nM annealed; ATP concentration: 500 uM
Summary of the method: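 Cy3-labelled switching-strand clusters on a modified Illumina MiSeq flow-cell were annealed to 100 nM quencher-labelled ATP aptamer and imaged first in selection buffer, then after 15 min with 500 uM ATP at 22 °C. NaOH stripping and re-annealing separated each of five buffer/ATP cycles, and clusters outside 100-1000 RFU were excluded. The fluorescence ratio sums target-cycle Cy3 intensity over buffer-cycle Cy3 intensity per cluster and averages it per switch-domain sequence.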
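Note: ATP exposure 15 min at 22 °C before imaging.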

**Q.** AGGGTCTTCG was tested. Which switch fluorescence ratio did it give?
**A.** 1.04 ± 0.012

**Q.** Which switch fluorescence ratio does the source give for AGCTGACATT here?
**A.** 0.999 ± 0.034

**Q.** With CCAAAATTG as the sequence, how does the switch fluorescence ratio read?
**A.** 1.02 ± 0.018

**Q.** Which switch fluorescence ratio does the source give for CAGGCTTGTA here?
**A.** 1.004 ± 0.0098

**Q.** Which switch fluorescence ratio does the source give for GTTATTGTAT here?
**A.** 0.977 ± 0.014

**Q.** How did the switch fluorescence ratio turn out when TCGTCTGGTT was run?
**A.** 0.988 ± 0.03

**Q.** For TTGAGGGGCA, which switch fluorescence ratio is on record?
**A.** 1.01 ± 0.033

**Q.** GTGATGTCTC was tested. Which switch fluorescence ratio did it give?
**A.** 1.008 ± 0.0091

**Q.** Which switch fluorescence ratio does the source give for ATTATCAGCG here?
**A.** 1.01 ± 0.019

**Q.** How did the switch fluorescence ratio turn out when CTATTAAGGG was run?
**A.** 0.976 ± 0.056

**Q.** Which switch fluorescence ratio does the source give for ACAGCATGTA here?
**A.** 0.9589 ± 0.0093

**Q.** For TGAGTAGCTC, which switch fluorescence ratio is on record?
**A.** 0.9715 ± 0.0037

**Q.** For TCTGTAGGGG, which switch fluorescence ratio is on record?
**A.** 0.995 ± 0.013

**Q.** With AGGATCTCGA as the sequence, how does the switch fluorescence ratio read?
**A.** 0.996 ± 0.033

**Q.** For GTAGTCGTAC, which switch fluorescence ratio is on record?
**A.** 1.11 ± 0.064

**Q.** For TTATTTATAT, which switch fluorescence ratio is on record?
**A.** 0.971 ± 0.013

**Q.** With TGGAGGTAGT as the sequence, how does the switch fluorescence ratio read?
**A.** 0.993 ± 0.033

**Q.** Which switch fluorescence ratio does the source give for CTGGAAATTG here?
**A.** 1.03 ± 0.036

**Q.** Which switch fluorescence ratio does the source give for GAAGGGGGGA here?
**A.** 0.985 ± 0.034

**Q.** ATATAGGGAT was tested. Which switch fluorescence ratio did it give?
**A.** 1.021 ± 0.007

**Q.** For TTAAGTAGTT, which switch fluorescence ratio is on record?
**A.** 1.02 ± 0.0099

**Q.** GGGGGCAGAT was tested. Which switch fluorescence ratio did it give?
**A.** 0.97 ± 0.018

**Q.** With TTCTTTTCGT as the sequence, how does the switch fluorescence ratio read?
**A.** 0.979 ± 0.041

**Q.** With CTAAGGTAAG as the sequence, how does the switch fluorescence ratio read?
**A.** 0.981 ± 0.049

**Q.** For TAGGTTGTCA, which switch fluorescence ratio is on record?
**A.** 1.04 ± 0.024

**Q.** Which switch fluorescence ratio does the source give for AGGTTTATTG here?
**A.** 0.993 ± 0.0097

**Q.** With AGGGGTATAT as the sequence, how does the switch fluorescence ratio read?
**A.** 1.02 ± 0.028

**Q.** For GCGTTCTCGT, which switch fluorescence ratio is on record?
**A.** 0.989 ± 0.018

**Q.** For CCCGAGTTAT, which switch fluorescence ratio is on record?
**A.** 1.067 ± 0.01

**Q.** How did the switch fluorescence ratio turn out when CTGAGGGGCC was run?
**A.** 0.951 ± 0.071

**Q.** ATGTTCGGCC was tested. Which switch fluorescence ratio did it give?
**A.** 1.012 ± 0.01

**Q.** CTCGAGTAGT was tested. Which switch fluorescence ratio did it give?
**A.** 1.04 ± 0.02

**Q.** With ATGTAAGCCC as the sequence, how does the switch fluorescence ratio read?
**A.** 0.992 ± 0.022

**Q.** How did the switch fluorescence ratio turn out when ATTATCTGTG was run?
**A.** 0.97 ± 0.039

**Q.** For CCGTGCGTAT, which switch fluorescence ratio is on record?
**A.** 1.3 ± 0.062

**Q.** Which switch fluorescence ratio does the source give for CTTGATATTT here?
**A.** 0.993 ± 0.015

**Q.** How did the switch fluorescence ratio turn out when GGGTTTATTG was run?
**A.** 0.998 ± 0.049

**Q.** Which switch fluorescence ratio does the source give for CTTTTACATA here?
**A.** 1.03 ± 0.018

**Q.** How did the switch fluorescence ratio turn out when GTTGAGGGGG was run?
**A.** 1.01 ± 0.047

**Q.** For CCGGGGGTCG, which switch fluorescence ratio is on record?
**A.** 1.06 ± 0.074

**Q.** Which switch fluorescence ratio does the source give for AAGATGGTTA here?
**A.** 0.97 ± 0.01

**Q.** Which switch fluorescence ratio does the source give for CTTGACGCCG here?
**A.** 1.09 ± 0.13

**Q.** With CATTGCGATT as the sequence, how does the switch fluorescence ratio read?
**A.** 1.13 ± 0.14

**Q.** How did the switch fluorescence ratio turn out when CGTATTCTAG was run?
**A.** 1 ± 0.023

**Q.** With GGCACTTCGG as the sequence, how does the switch fluorescence ratio read?
**A.** 0.99 ± 0.014

**Q.** Which switch fluorescence ratio does the source give for ACTTAGCAA here?
**A.** 1.92 ± 0.092

**Q.** How did the switch fluorescence ratio turn out when GGGCAGGGGT was run?
**A.** 1.45 ± 0.84

**Q.** How did the switch fluorescence ratio turn out when GGGGCGTTTG was run?
**A.** 0.961 ± 0.057

**Q.** CACTAGCGGA was tested. Which switch fluorescence ratio did it give?
**A.** 1.05 ± 0.023

**Q.** Which switch fluorescence ratio does the source give for AGGGGGCGTA here?
**A.** 0.9896 ± 0.0086

**Q.** With GTAAGGGGGG as the sequence, how does the switch fluorescence ratio read?
**A.** 0.994 ± 0.028

**Q.** Which switch fluorescence ratio does the source give for AGTTGACGGG here?
**A.** 1.03 ± 0.0082

**Q.** How did the switch fluorescence ratio turn out when GATTTGATGG was run?
**A.** 0.987 ± 0.045

**Q.** Which switch fluorescence ratio does the source give for TGAAAGAGGC here?
**A.** 0.999 ± 0.014

**Q.** For GGGGTCTAGT, which switch fluorescence ratio is on record?
**A.** 1.01 ± 0.026

**Q.** For TTTATATATG, which switch fluorescence ratio is on record?
**A.** 1 ± 0.024

**Q.** Which switch fluorescence ratio does the source give for AGGGCTGACG here?
**A.** 1.02 ± 0.024

**Q.** GCGGGGCGAA was tested. Which switch fluorescence ratio did it give?
**A.** 1.01 ± 0.012

**Q.** For GATGTAAGTG, which switch fluorescence ratio is on record?
**A.** 0.972 ± 0.02

**Q.** With TCATTGAGGA as the sequence, how does the switch fluorescence ratio read?
**A.** 0.992 ± 0.014

**Q.** With GAAGTCATTT as the sequence, how does the switch fluorescence ratio read?
**A.** 0.9828 ± 0.0031

**Q.** For AACACATGCG, which switch fluorescence ratio is on record?
**A.** 0.9936 ± 0.0015

**Q.** With TTCCCCATGG as the sequence, how does the switch fluorescence ratio read?
**A.** 1.43 ± 0.6

**Q.** How did the switch fluorescence ratio turn out when CGGGGCTTGG was run?
**A.** 1.01 ± 0.023

**Q.** How did the switch fluorescence ratio turn out when AGCCGTCAAC was run?
**A.** 1.05 ± 0.041

**Q.** How did the switch fluorescence ratio turn out when GCTGGAGGTG was run?
**A.** 1.03 ± 0.039

**Q.** For TAGTAGAAAG, which switch fluorescence ratio is on record?
**A.** 1.002 ± 0.0032

**Q.** With GGGGGGTCCG as the sequence, how does the switch fluorescence ratio read?
**A.** 1.01 ± 0.074

**Q.** How did the switch fluorescence ratio turn out when TGCGGGTGCT was run?
**A.** 1.04 ± 0.042

**Q.** Which switch fluorescence ratio does the source give for GATGAGAATT here?
**A.** 0.98912 ± 0.00024

**Q.** How did the switch fluorescence ratio turn out when TTTTTTTTGG was run?
**A.** 0.998 ± 0.032

**Q.** AGATTTGTGG was tested. Which switch fluorescence ratio did it give?
**A.** 0.9917 ± 0.0033

**Q.** With TTGGGGAGAA as the sequence, how does the switch fluorescence ratio read?
**A.** 0.98 ± 0.035

**Q.** How did the switch fluorescence ratio turn out when TCGGGAATTG was run?
**A.** 1.04 ± 0.085

**Q.** How did the switch fluorescence ratio turn out when CAGCGGGGGG was run?
**A.** 1.01 ± 0.034

**Q.** GGGGCTATGG was tested. Which switch fluorescence ratio did it give?
**A.** 1.02 ± 0.045

**Q.** For TCTGGCTTTT, which switch fluorescence ratio is on record?
**A.** 1.022 ± 0.0092
